Residue numbers refer to the chain shown, from its start.
T1: human IGSF11 (VSIG3) ECD, His-tagged (human, UniProt Q5DX21 23-241)
T1 construct: in part bought (SinoBiological 13094-H08H); also called HIS-IGSF11; IGSF11-HIS; not shown: His tag
T1 sequence: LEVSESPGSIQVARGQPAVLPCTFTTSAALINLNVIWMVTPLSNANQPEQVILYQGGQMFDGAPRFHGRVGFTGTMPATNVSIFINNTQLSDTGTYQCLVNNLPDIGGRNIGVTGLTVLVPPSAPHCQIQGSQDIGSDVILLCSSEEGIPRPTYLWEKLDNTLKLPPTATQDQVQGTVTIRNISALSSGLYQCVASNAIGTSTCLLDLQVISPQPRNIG

T2: ECD of murine IGSF11, recombinant biotinylated (mouse, UniProt P0C673 23-240)
T2 construct: whole entry named; also called Mouse IGSF11
T2 sequence: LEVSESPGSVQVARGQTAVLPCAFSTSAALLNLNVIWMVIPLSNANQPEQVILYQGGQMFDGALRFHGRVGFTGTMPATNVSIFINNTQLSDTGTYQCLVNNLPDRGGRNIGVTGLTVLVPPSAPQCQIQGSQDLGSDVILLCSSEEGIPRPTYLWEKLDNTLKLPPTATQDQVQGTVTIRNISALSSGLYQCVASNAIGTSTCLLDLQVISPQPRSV

T3: extracellular domain (ECD) of human IGSF11 (VSIG3), recombinant (human, UniProt Q5DX21 23-241)
T3 construct: biotinylated where captured on streptavidin; tags of the reagent not always stated; also called IGSF11 (ECD domain); ECD-IGSF11
T3 sequence: T1 sequence

B1: A-001 (IgG1 format) (antibody, V domains shown)
VH: EVQLVESGGGLVKPGGSLRLSCAASGFTFSSYSMNWVRQAPGKGLEWVSSISSSSSYIYYADSVKGRFTISRDNAKNSLYLQMNSLRAEDTAVYYCVRSIIVQALGITSVFDIWGQGTMVTVSS
VL: AIRLTQSPSSLSASVGDRVTISCRASQIISNHLNWYQQKPGKAPKLLIYAASRLQTGVPSRFSGSGSETDYTLTISSLQPEDFATYYCQQSYSNPRTFGHGTKVEIK
notes: human IgG1 format
B2: A-016 (IgG1 format) (antibody, V domains shown)
VH: QVQLQESGAEVKKPGASVKVSCKASGYTFTGYYMHWVRQAPGQGLEWMGGIIPIFGTANYAQKFQGRVTITADESTSTAYMELSSLRSEDTAVYYCAGAGMELTRSGAYYYYGMDVWGQGTTVTVSS
VL: QSALTQPASVSGSPGQSITISCTGTSSDIGGYTFVSWYQQHPGKAPKVMIHDVNNRPSGISNRFSGSKSGNTASLTISGLQAEDEADYYCSSVTSTNTYVFGTGTKVTVL
notes: human IgG1 format
B3: A-006 (scFv format) (scFv, V domains shown)
VH: EVQLVESGGGLIQPGGSLRLSCAASGFTVSSNYMSWVRQAPGKGLEWVSVIYSGGSTYYADSVKGRFTISRDNSKNTLYLQMNSLRAEDTAVYYCARGNPYYYGDLQVNFDYWGQGTLVTVSS
VL: QAVVTQEPSLTVSPGGTVTLTCASSTGAVTSGYYPNWFQQKPGQAPRPLIYSTSNKHSWTPARFSGSLLGGKAALTLSGVQPDDEAEYYCLLYYGGDWVFGGGTKLTVL
notes: scFv
B4: A-012 (scFv format) (scFv, V domains shown)
VH: B3 VH with V5L, A24V
VL: B3 VL with P48A, D83E, D97A
notes: scFv
B5: A-013 (scFv format) (scFv, V domains shown)
VH: B3 VH
VL: B3 VL with G32A, P48A, D83E, E87D, D97A
notes: scFv
B6: A-007 (scFv format) (scFv, V domains shown)
VH: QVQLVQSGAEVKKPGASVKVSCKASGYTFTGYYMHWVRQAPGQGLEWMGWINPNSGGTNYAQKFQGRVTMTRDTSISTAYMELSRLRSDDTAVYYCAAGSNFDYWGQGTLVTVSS
VL: QSALTQPASVSGSPGQSITIACTGSSSDIGSFSYVSWYQQRPGKAPTLIIYGVNNRPLGVSRRFSGSKSGNTASLSISGLQAEDEADYYCSSYTRRSTVIFGGGTKLTVL
notes: scFv
B7: A-015 (scFv format) (scFv, V domains shown)
VH: not shown
VL: QPVLTQSPSASASLGASVKLTCTLSSGHTNYAIAWRQQQPGKAPRYLMLLNSDGSHTRGGGIPDRFSGSSSGAERYLTISSLQSEDEADYYCMIWHNNAWVFGGGTKLAVL
notes: scFv
B8: A-010 (scFv format) (scFv, V domains shown)
VH: QVQLVQSGAEVKKPGASVKVSCKASGYTFTSYGISWVRQAPGQGLEWMGWISAYNGNTNYAQKLQGRVTMTTDTSTSTAYMELRSLRSDDTAVYYCARVPAWSGQFDYWGQGTLVTVSS
VL: QSALTQPASVSGSPGQSITISCTGSSSDVGGYNYVSWYQQYPGKAPKLMIYDVRSRPSGVSNRFSGSKSGNTASLTISGLQAEDEADYYCTSYTSSNTLVIFGGGTKVTVL
notes: scFv

Target: T1, human IGSF11 (VSIG3) ECD, His-tagged
Assay: IgG1 ELISA EC50 <0.02 nM

| Binder | EC50 [nM] |
| --- | --- |
| B1 | < 0.02 |
| B2 | < 0.02 |

Target: T2, ECD of murine IGSF11, recombinant …
Assay: ELISA RFU 0.5-1.0

| Binder | ELISA binding signal (RFU) [rfu] |
| --- | --- |
| B3 | 0.5 to 1 |
| B4 | 0.5 to 1 |
| B5 | 0.5 to 1 |
| B6 | 0.5 to 1 |
| B7 | 0.5 to 1 |
| B8 | 0.5 to 1 |

Target: T3, extracellular domain (ECD) of human …
Assay: ELISA RFU 0.5-1.0

| Binder | ELISA binding signal (RFU) [rfu] |
| --- | --- |
| B3 | 0.5 to 1 |
| B4 | 0.5 to 1 |
| B5 | 0.5 to 1 |
| B6 | 0.5 to 1 |
| B7 | 0.5 to 1 |
| B8 | 0.5 to 1 |

Reference: US20220372138A1 (IOMX THERAPEUTICS, published 2022)
